{
  "source": "paper doi:10.1101/2024.10.03.616038",
  "about": "(2024)",
  "binders": {"B1": {"name": "REGN10987 (IgG1) (antibody, V domains shown)", "VH": "QVQLVESGGGVVQPGRSLRLSCAASGFTFSNYAMYWVRQAPGKGLEWVAVISYDGSNKYYADSVKGRFTISRDNSKNTLYLQMNSLRTEDTAVYYCASGSDYGDYLLVYWGQGTLVTVSS", "VL": "QSALTQPASVSGSPGQSITISCTGTSSDVGGYNYVSWYQQHPGKAPKLMIYDVSKRPSGVSNRFSGSKSGNTASLTISGLQSEDEADYYCNSLTSISTWVFGGGTKLTVL"}, "B2": {"name": "S2K146 (IgG1) (antibody, V domains shown)", "VH": "QVQLVESGGVVVQPGGSLRLSCAASGFTFHDHTMHWVRQAPGKGLEWVSLITWNGGTIHYSDSVKGRFTISRDNSKNSLYLQMNSLRTEDTALYYCAKDLGRGGWYLPSDAWGQGTLVTVSS", "VL": "not shown"}, "B3": {"name": "LY-CoV1404 (IgG1) (antibody, V domains shown)", "VH": "QITLKESGPTLVKPTQTLTLTCTFSGFSLSISGVGVGWLRQPPGKALEWLALIYWDDDKRYSPSLKSRLTISKDTSKNQVVLKMTNIDPVDTATYYCAHHSISTIFDHWGQGTLVTVSS", "VL": "QSALTQPASVSGSPGQSITISCTATSSDVGDYNYVSWYQQHPGKAPKLMIFEVSDRPSGISNRFSGSKSGNTASLTISGLQAEDEADYYCSSYTTSSAVFGGGTKLTVL"}, "B4": {"name": "BD55-5840 (IgG1) (antibody, V domains shown)", "VH": "VQLAQSGSELRKPGASVKVSCDTSGHSFTSNAIHWVRQAPGQGLEWMGWINTDTGTPTYAQGFTGRFVFSLDTSARTAYLQISSLKADDTAVFYCARERDYSDYFFDYWGQGTLVTVSS", "VL": "EVVMTQSPASLSVSPGERATLSCRARASLGISTDLAWYQQRPGQAPRLLIYGASTRATGIPARFSGSGSGTEFTLTISSLQSEDSAVYYCQQYSNWPLTFGGGTKVEIK"}, "B5": {"name": "DXP-604 (IgG1) (antibody, V domains shown)", "VH": "EVQLVESGGGLIQPGGSLRLSCAASGIIVSSNYMTWVRQAPGKGLEWVSVIYSGGSTFYADSVKGRFTISRDNSKNTLYLQMSSLRAEDTAVYYCARDLGPYGMDVWGQGTTVTVSS", "VL": "DIQLTQSPSFLSASVGDRVTITCRASQGISSDLAWYQQKPGKAPNLLIYAASTLQSGVPSRFSGSGSGTEFTLTISSLQPEDFATYYCQQLNSDLYTFGQGTKLEIK"}},
  "data": [
    {"biological_target": "SARS-CoV-2 Spike RBD, original (Wuhan) strain (SARS-CoV-2, UniProt P0DTC2)", "assay": "SPR", "units": {"Kd": "nM"}, "values": [
      {"binder": "B1", "Kd": 14.5},
      {"binder": "B2", "Kd": 0.0457},
      {"binder": "B3", "Kd": 0.977},
      {"binder": "B4", "Kd": 0.0759},
      {"binder": "B5", "Kd": 0.214}
    ]}
  ]
}
